In article PMC3585047 (The Journal of Biological Chemistry, 2013) one finds Kd data, which are given here for two molecules.

The test addresses APOBEC3G, fluorescein-labelled (F-A3G) (human, UniProt Q9HC16 1-384, fluorescein (Fluorescein-EX Protein Labeling kit), sites not stated). As to the kind of experiment: fluorescence polarisation.

APOBEC3G, fluorescein-labelled (F-A3G), sequence (Q9HC16 whole entry): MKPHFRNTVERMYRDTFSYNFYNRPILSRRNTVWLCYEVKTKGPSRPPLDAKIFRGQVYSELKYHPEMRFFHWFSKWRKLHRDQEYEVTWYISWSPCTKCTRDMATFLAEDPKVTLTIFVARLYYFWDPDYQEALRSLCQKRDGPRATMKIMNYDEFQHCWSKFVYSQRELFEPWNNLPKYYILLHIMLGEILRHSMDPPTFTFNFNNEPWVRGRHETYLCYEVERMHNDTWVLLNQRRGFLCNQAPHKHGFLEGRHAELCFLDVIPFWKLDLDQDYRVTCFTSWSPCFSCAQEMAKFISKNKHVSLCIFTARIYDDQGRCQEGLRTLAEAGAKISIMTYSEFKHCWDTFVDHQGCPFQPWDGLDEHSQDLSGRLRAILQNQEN

B1: GST-Vif_(HXB2) (natural protein)
chain: not shown
B1 showed a dissociation constant (Kd) of 90 nM.

B2: GST-Vif_(IIIB) (natural protein)
chain: not shown
The molecule B2 had a dissociation constant Kd of 78 nM. The Kd values of the last two molecules are within 1.5-fold of each other.
